Data from publication PMC4222275, “Biochemical and functional characterization of SpdA, a 2′, 3′cyclic nucleotide phosphodiesterase from Sinorhizobium meliloti” (BMC Microbiology, 2013).

Substrate: Nc1ncnc2c1ncn2[C@@H]1O[C@H](CO)[C@H]2OP(=O)(O)O[C@H]21
Experiment: phosphate release with calf intestine phosphatase, Biomol Green
Type: biochemical, Sinorhizobium meliloti
Details: 50 mM Tris-HCl pH 8, 5 mM beta-mercaptoethanol, 10 mM NaCl, 25 °C, 1 μM SpdA

B1: SpdA (Sinorhizobium meliloti 1021) (protein)
chain: MTKLIIFSDLHMVPEGETIIGLDPYRRLANGIAHVNRYHADADRVIFAGDLTHRADRASYERLKALLGELTPPAALMIGNHDRRDVFLDVFAEATTDANGFVQQVLDFADCRAILLDTLFAPPYDYPVSHAGHLCDRRLAWLDRQLEEAGGRPALIFMHHPPHISGFAGIDMIRLVNEDDFYALVKRHGNVRHIFAGHVHRTISGSSRGIPFSIFKSPVHQQPMPFDTADASLSVDEPAAYGIALVTGDGVLVHTEDYEIARRDAVGA
notes: C-terminal His6 tag (pET-22b, NdeI-HindIII), tag kept, E. coli BL21(DE3), monomer, metal-free
- Km: 3.7 mM
- kcat: 2 s⁻¹
